{
  "source": "patent US10617743B2",
  "about": "“Method to improve safety and efficacy of anti-cancer therapy” (CLS Therapeutics Limited, priority 2014, dated 2020)",
  "key": {"gastrointestinal lesions": {"test_system": "gastrointestinal lesions", "type": "in vivo, rats", "conditions": "for Total number of lesions per group: 16 rats", "procedure": "On Day 1, Etoposide (LANCE) 200 mg/kg and 5-fluorouracil (5-FU; EBEWE) 400 mg/kg were given orally via feeding needle in 500 μl of a 9% glucose solution. Animals were divided into 4 groups of 16 rats each. […] Group I: IV placebo (WFI); • 2. Group II: human recombinant DNase I (Pharmsynthez OJSC) at 1.5 mg/kg (3000 KU/kg) dose IV; • 3. Group III: human recombinant DNase I (Pharmsynthez OJSC) at 50 mg/kg (100000 KU/kg) dose IV; • 4. Group IV: cimetidine solution (Gedeon Richter) at 50 mg/kg dose IV.\n36 hours later, all animals were euthanized and their stomachs were removed and analyzed for the presence of erosions and hemorrhages using an automated video analyzer system."}, "[1]": {"test_system": "white blood cell count (WBC)", "experiment": "Cyclophosphamide-induced neutropenia in mice (FIG. 3)", "type": "in vivo", "conditions": "for Effect on typical early phase decline in WBC count (FIG. 3): cyclophosphamide 200 mg/kg IP Day 1, DNase I 25 mg/kg/day IV or GM-CSF 200 μg/kg/day SC on Days 2-5", "procedure": "30 female 10-12 week old BALB/C mice (obtained from Rappolovo animal house) were used in this experiment. […] Starting on Day 2, mice were then treated as follows: • 1. Group I (n=10): control (no treatment); • 2. […] Group III (n=10): animals were treated with human recombinant GM-CSF (Neostim, Pharmsynthez OJSC) at 200 μg/kg/day dose injected subcutaneously (SC) on Days 2-5. […] The graph in FIG. 3 summarizes the dynamics of the white blood cell count (WBC) in the three experimental groups. The vertical axis represents WBC with units of 10^9 WBC/L. The horizontal axis represents the number of days after cyclophosphamide injection."}, "L1210 leukemia cells": {"test_system": "L1210 leukemia cells", "experiment": "Survival of mice transplanted with L1210 leukemia cells (FIG. 4)", "type": "in vivo", "conditions": "DBA2 mice; AraC 1000 mg/kg IP Days 2, 5, 8; DNase II 15 or 45 mg/kg/day IP; alone or combined", "procedure": "Treatment with DNase and AraC was initiated on Day 1 of experiment. Cytosine arabinoside (AraC; Cytosar, Pfizer) was injected IP at a dose of 1000 mg/kg on Days 2, 5 and 8. The injected doses were considered adequate for the model and injection route based on prior experiments (13-14). DNase II (Wornington) was injected IP at doses of 15 mg/kg/day and 45 mg/kg/day on Days 1, 3, 5, 8, 10, 12, 15, 17, and 19.\nAnimals were randomized into 6 experimental groups of 6 mice per group as follows: • 1. Group I: negative control (no treatment); • 2. Group II: positive control (animals treated with AraC); • 3. […]; • 4. Group IV: animals treated with AraC and 45 mg/kg DNase; • 5. Group V: animals treated with 15 mg/kg DNase, no AraC; • 6. Group VI: animals treated with 45 mg/kg DNase, no AraC.\nThe vertical axis of FIG. 4 represents the survival measured in days after implantation with the L1210 leukemia cells. The six experimental groups are represented on the horizontal axis: 1—Negative Control; 2—AraC (positive control); 3—AraC+DNase II 15 mg/kg; 4—AraC+DNase II 45 mg/kg; 5—DNase II 15 mg/kg 6—DNase II 45 mg/kg."}, "Wistar male rats": {"test_system": "Wistar male rats", "conditions": "for Number of dead/out of total in group: monitored 2 weeks", "text": "Group I: control group (no Doxorubicin, no DNase); • 2.\nAnimals were monitored during 2 weeks from the beginning of experiment for survival and weight."}, "myocardium": {"test_system": "myocardium", "experiment": "Myocardial necrosis area in deceased rats challenged with doxorubicin (FIG. 1)", "type": "in vivo", "conditions": "Doxorubicin 7.5 mg/kg IV, DNase I 15 mg/kg daily IP vs placebo", "procedure": "FIG. 1 is a bar graph showing myocardial necrosis area in deceased rats challenged with sub-lethal IV doses of doxorubicin (7.5 mg/kg) and either daily IP injections of human recombinant DNase I (15 mg/kg) (black bar) or daily […] injections of placebo (WFI) (diagonal hatched bar). Serial myocardium microscopy samples from each heart were analyzed using an automated video analyzer to quantify the necrotic areas. The sum of necrotic area (Sna; nm^2) was calculated as a sum of necrotic areas in 30 serial slides from each individual autopsied heart (n=3 for DNase I-treated rats—black bar; n=5 for placebo-treated rats—diagonal hatched bar).\nThe hearts deceased rats challenged with sub-lethal doses of doxorubicin (7.5 mg/kg) from (Groups IV and V) were autopsied. Serial myocardium microscopy samples from each heart were analyzed using an automated video analyzer to quantify the necrotic areas. The sum of necrotic area (Sna; nm^2) was calculated as a sum of necrotic areas in 30 serial slides from each individual autopsied heart (n=3 for Group IV (FIG. 1, black bars); n=5 for Group V (FIG. 1, diagonal hatched bars)). Group IV received daily IP injections of human recombinant DNase I at 15 mg/kg dose, while Group V received daily IP injections of placebo (WFI)."}, "Erlich carcinoma cells": {"test_system": "Erlich carcinoma cells", "experiment": "Survival of mice with Erlich carcinoma, DNase with or without radiotherapy", "type": "in vivo", "conditions": "for % Survival on Day 16: no radiotherapy"}, "[2]": {"experiment": "Body weight of mice with Erlich carcinoma, DNase with or without radiotherapy", "type": "in vivo"}, "thymocytes": {"test_system": "thymocytes", "experiment": "Con A-induced lymphocyte blast transformation of thymocytes from paclitaxel-treated mice", "type": "in vivo", "conditions": "paclitaxel 20 mg/kg IV, DNase gamma 2 mg/kg IP", "procedure": "10 male 6-week-old (CBAxCS7Bl6) F1 mice (obtained from Rappolovo animal house) were given a single 20 mg/kg dose of paclitaxel (Paclitaxel-Teva) IV. A group of 5 paclitaxel treated mice were injected IP 1 hour later with recombinant mouse DNase gamma (USCN Life Science Inc.) at 2 mg/kg dose IP. A group of 5 untreated mice were injected IP at the same time with 1 ml of placebo (WFI) to serve as the control. All mice were killed 24 hours later by cervical dislocation. The thymuses from each group were collected and homogenized in a separator in RPMI 1640 media supplemented with 10% fetal calf serum. The suspension of thymocytes was filtered and sedimented in a centrifuge at 400×g for 2 minutes and then resuspended with the same media. Thymocytes were plated into 96 well plates (900,000 cells per well in 200 μl of RPMI 1640 supplemented with 10% fetal calf serum (FCS)) and incubated for 32 hours at 37° C., 100% humidity and 5% CO2 atmosphere. Each well was then supplemented with ^3H thymidine (1 μCi/10 μl/well) and Concanavalin A (ConA; 50 μl: 1.25 μg/ml). After 24 hours of further incubation, thymocytes were harvested and dried. Labeled ^3H thymidine incorporation was measured using a Beckman scintillation counter."}, "[3]": {"conditions": "treatment 50 mg/kg IV 2 h after Etoposide 200 mg/kg + 5-FU 400 mg/kg per os"}, "[4]": {"conditions": "Doxorubicin 7.5 mg/kg/day IV 5 days with DNase I 15 mg/kg/day IP (Group IV) or placebo IP (Group V)"}, "[5]": {"conditions": "Doxorubicin 10.0 mg/kg/day IV 5 days with DNase I 15 mg/kg/day IP (Group VI) or placebo IP (Group VII)"}, "[6]": {"conditions": "of 16 rats, treatment 50 mg/kg IV after Etoposide 200 mg/kg + 5-FU 400 mg/kg per os"}, "[7]": {"conditions": "DNase I 15 mg/kg/day IP with Doxorubicin IV 5 days"}},
  "note": "Read-outs that look alike come from different tables or passages of the source.",
  "data": [
    {"molecule": "CN/C(=N/CCSCc1nc[nH]c1C)NC#N", "note": "[Cimetidine, cimetidine, reference compound]", "values": [
      {"measurement": "Total number of lesions per group", "setting": "gastrointestinal lesions; [3]", "value": 40}
    ]},
    {"molecule": "GM-CSF: human recombinant GM-CSF (Neostim, Pharmsynthez OJSC)", "values": [
      {"measurement": "Effect on typical early phase decline in WBC count (FIG. 3)", "setting": "[1]", "value": "not able to prevent it"}
    ]},
    {"molecule": "Nc1ccn([C@@H]2O[C@H](CO)[C@@H](O)[C@@H]2O)c(=O)n1", "note": "[AraC, cytosine arabinoside]", "values": [
      {"measurement": "Survival after implantation with L1210 leukemia cells (FIG. 4)", "setting": "L1210 leukemia cells", "value": "better survival rates"}
    ]},
    {"molecule": "COc1cccc2c1C(=O)c1c(O)c3c(c(O)c1C2=O)C[C@@](O)(C(=O)CO)C[C@@H]3O[C@H]1C[C@H](N)[C@H](O)[C@H](C)O1", "note": "[Doxorubicin, reference compound]", "values": [
      {"measurement": "Number of dead/out of total in group", "setting": "Wistar male rats; [4]", "value": "5/6"},
      {"measurement": "Number of dead/out of total in group", "setting": "Wistar male rats; [5]", "value": "6/6"}
    ]},
    {"molecule": "human recombinant DNase I: human recombinant DNase I (Pharmsynthez OJSC), deoxyribonuclease enzyme (protein, UniProt P24855 23-282, looked up) Deoxyribonuclease-1: LKIAAFNIQTFGETKMSNATLVSYIVQILSRYDIALVQEVRDSHLTAVGKLLDNLNQDAPDTYHYVVSEPLGRNSYKERYLFVYRPDQVSAVDSYYYDDGCEPCGNDTFNREPAIVRFFSRFTEVREFAIVPLHAAPGDAVAEIDALYDVYLDVQEKWGLEDVMLMGDFNAGCSYVRPSQWSSIRLWTSPTFQWLIPDSADTTATPTHCAYDRIVVAGMLLRGAVVPDSALPFNFQAAYGLSDQLAQAISDHYPVEVMLK", "values": [
      {"measurement": "Effect on myocardial necrosis area (FIG. 1)", "setting": "myocardium", "value": "decreases the myocardial necrosis area"},
      {"measurement": "Effect on neutropenia induced by cyclophosphamide (FIG. 3)", "setting": "[1]; cyclophosphamide 200 mg/kg IP Day 1, DNase I 25 mg/kg/day IV Days 2-5", "value": "ameliorates neutropenia"},
      {"measurement": "Effect on typical early phase decline in WBC count (FIG. 3)", "setting": "[1]", "value": "prevents the typical early phase decline in WBC count"},
      {"measurement": "Survival rates versus non-treated mice", "setting": "Erlich carcinoma cells; DNase I alone (Groups 2 and 3)", "value": "better survival rates"},
      {"measurement": "% Survival on Day 16", "setting": "Erlich carcinoma cells; Group 2: DNAse I 20 mg/kg/day intramuscularly in 2 daily doses", "value": 40, "unit": "%"},
      {"measurement": "% Survival on Day 16", "setting": "Erlich carcinoma cells; Group 3: DNAse I 40 mg/kg/day intramuscularly in 2 daily doses", "value": 50, "unit": "%"},
      {"measurement": "Survival of combination of radiation therapy and DNase versus either treatment alone", "setting": "Erlich carcinoma cells; Groups 4 and 5, dose-dependent on DNase", "value": "clear survival advantage"},
      {"measurement": "Total number of lesions per group", "setting": "gastrointestinal lesions; treatment 1.5 mg/kg IV 2 h after Etoposide 200 mg/kg + 5-FU 400 mg/kg per os", "value": 60},
      {"measurement": "Total number of lesions per group", "setting": "gastrointestinal lesions; [3]", "value": 16},
      {"measurement": "Achieved protection compared to 1.5 mg/kg DNase I dose and 50 mg/kg dose of cimetidine", "setting": "gastrointestinal lesions; DNase I 50 mg/kg IV, rats treated with etoposide and 5-FU", "value": "significantly superior"},
      {"measurement": "Number of lesion free animals", "setting": "gastrointestinal lesions; of 16 rats, treatment 1.5 mg/kg IV after Etoposide 200 mg/kg + 5-FU 400 mg/kg per os", "value": 5},
      {"measurement": "Number of lesion free animals", "setting": "gastrointestinal lesions; [6]", "value": 12},
      {"measurement": "Number of lesion free animals (percent)", "setting": "gastrointestinal lesions; [6]", "value": 75, "unit": "%"},
      {"measurement": "Effect on chemotherapy-induced ulceration", "setting": "gastrointestinal lesions; rats treated with etoposide and 5-FU, dose-dependent (1.5 and 50 mg/kg IV)", "value": "suppresses chemotherapy-induced ulceration"},
      {"measurement": "Effect on lethality of doxorubicin", "setting": "Wistar male rats; [7]", "value": "suppresses the lethality of doxorubicin"},
      {"measurement": "Effect on life span of rats challenged with sub-lethal doses of doxorubicin", "setting": "Wistar male rats; [7]", "value": "increases the life span"},
      {"measurement": "Number of dead/out of total in group", "setting": "Wistar male rats; [4]", "value": "3/6"},
      {"measurement": "Number of dead/out of total in group", "setting": "Wistar male rats; [5]", "value": "6/6"},
      {"measurement": "Change in Median Body Weight on Day 16", "setting": "[2]; Group 4: radiotherapy 200 cGy per day for 5 days plus DNAse I 20 mg/kg/day intramuscularly", "value": 0, "unit": "g"},
      {"measurement": "Effect on body weight loss induced by radiotherapy", "setting": "[2]; mice with Erlich carcinoma, radiotherapy plus DNase I", "value": "clearly prevents the body weight loss"}
    ]},
    {"molecule": "DNase gamma: recombinant mouse DNase gamma (USCN Life Science Inc.) (protein, UniProt O55070 26-310, looked up) Deoxyribonuclease gamma: LRLCSFNVRSFGASKKENHEAMDIIVKIIKRCDLILLMEIKDSSNNICPMLMEKLNGNSRRSTTYNYVISSRLGRNTYKEQYAFVYKEKLVSVKTKYHYHDYQDGDTDVFSREPFVVWFHSPFTAVKDFVIVPLHTTPETSVKEIDELVDVYTDVRSQWKTENFIFMGDFNAGCSYVPKKAWQNIRLRTDPKFVWLIGDQEDTTVKKSTSCAYDRIVLCGQEIVNSVVPRSSGVFDFQKAYDLSEEEALDVSDHFPVEFKLQSSRAFTNNRKSVSLKKRKKGNRS", "values": [
      {"measurement": "Effect on taxane-induced suppression of thymocytes' proliferative activity", "setting": "thymocytes", "value": "ameliorates taxane-induced suppression"}
    ]}
  ]
}
